Experimental data as given in article PMC10686484, “Cas9 is mostly orthogonal to human systems of DNA break sensing and repair”.

Legend:
Cas9 = Cas9 (Streptococcus pyogenes, UniProt Q99ZW2 1-1368); experiment: EMSA; preformed 1 complex with sgRNA, no Mg2+; reported as apparent Kd (EC50); EMSA: 50 mM Tris-HCl pH 7.5, 100 mM NaCl, 1 mM DTT, 0.1 mg/ml BSA (oligo dsDNA only), 10 mM MgCl2 if indicated (always for plasmid), 4 C, 30 min; 10 nM dsDNA or 10 ng/ul plasmid; conditions: protein: recombinant; label: 5'-32P on DNA2 (target strand); guide + blunt 35 bp duplex
Ku antigen (Ku70/80) = Ku antigen (Ku70/80) (human, UniProt P12956;P13010 2-609;2-732); experiment: EMSA; EMSA: 50 mM Tris-HCl pH 7.5, 100 mM NaCl, 1 mM DTT, 0.1 mg/ml BSA (oligo dsDNA only), 10 mM MgCl2 if indicated (always for plasmid), 4 C, 30 min; 10 nM dsDNA or 10 ng/ul plasmid; conditions: protein: native; copies: 1;1; label: 5'-32P on DNA2 (target strand); blunt 35 bp
RPA [1] = biological target: T1, RPA (human, UniProt P27694;P15927;P35244 1-616;1-270;1-121); experiment: EMSA; no Mg2+; reported as Kd; EMSA: 50 mM Tris-HCl pH 7.5, 100 mM NaCl, 1 mM DTT, 0.1 mg/ml BSA (oligo dsDNA only), 10 mM MgCl2 if indicated (always for plasmid), 4 C, 30 min; 10 nM dsDNA or 10 ng/ul plasmid; conditions: protein: recombinant; copies: 1;1;1; label: 5'-32P on DNA2 (target strand); blunt 35 bp
RPA [2] = biological target: T1, RPA; experiment: EMSA; 10 mM Mg2+; reported as Kd; EMSA: 50 mM Tris-HCl pH 7.5, 100 mM NaCl, 1 mM DTT, 0.1 mg/ml BSA (oligo dsDNA only), 10 mM MgCl2 if indicated (always for plasmid), 4 C, 30 min; 10 nM dsDNA or 10 ng/ul plasmid; conditions: protein: recombinant; copies: 1;1;1; label: 5'-32P on DNA2 (target strand); blunt 35 bp
YB1 (1-219) = YB1 (1-219) (human, UniProt P67809 1-219); experiment: EMSA; 10 mM Mg2+; several complexes; EMSA: 50 mM Tris-HCl pH 7.5, 100 mM NaCl, 1 mM DTT, 0.1 mg/ml BSA (oligo dsDNA only), 10 mM MgCl2 if indicated (always for plasmid), 4 C, 30 min; 10 nM dsDNA or 10 ng/ul plasmid; conditions: protein: recombinant; label: 5'-32P on DNA2 (target strand); blunt 35 bp
PARP2 = PARP2 (murine, UniProt O88554 1-559); experiment: EMSA; no NAD+, no Mg2+; apparent Kd (EC50), from loss of free DNA; EMSA: 50 mM Tris-HCl pH 7.5, 100 mM NaCl, 1 mM DTT, 0.1 mg/ml BSA (oligo dsDNA only), 10 mM MgCl2 if indicated (always for plasmid), 4 C, 30 min; 10 nM dsDNA or 10 ng/ul plasmid; conditions: protein: recombinant; label: 5'-32P on DNA2 (target strand); blunt 35 bp
PARP1 = PARP1 (human, UniProt P09874 1-1014); experiment: as above; conditions: protein: recombinant; label: 5'-32P on DNA2 (target strand); blunt 35 bp
Sequence of PARP1 (P09874 whole entry): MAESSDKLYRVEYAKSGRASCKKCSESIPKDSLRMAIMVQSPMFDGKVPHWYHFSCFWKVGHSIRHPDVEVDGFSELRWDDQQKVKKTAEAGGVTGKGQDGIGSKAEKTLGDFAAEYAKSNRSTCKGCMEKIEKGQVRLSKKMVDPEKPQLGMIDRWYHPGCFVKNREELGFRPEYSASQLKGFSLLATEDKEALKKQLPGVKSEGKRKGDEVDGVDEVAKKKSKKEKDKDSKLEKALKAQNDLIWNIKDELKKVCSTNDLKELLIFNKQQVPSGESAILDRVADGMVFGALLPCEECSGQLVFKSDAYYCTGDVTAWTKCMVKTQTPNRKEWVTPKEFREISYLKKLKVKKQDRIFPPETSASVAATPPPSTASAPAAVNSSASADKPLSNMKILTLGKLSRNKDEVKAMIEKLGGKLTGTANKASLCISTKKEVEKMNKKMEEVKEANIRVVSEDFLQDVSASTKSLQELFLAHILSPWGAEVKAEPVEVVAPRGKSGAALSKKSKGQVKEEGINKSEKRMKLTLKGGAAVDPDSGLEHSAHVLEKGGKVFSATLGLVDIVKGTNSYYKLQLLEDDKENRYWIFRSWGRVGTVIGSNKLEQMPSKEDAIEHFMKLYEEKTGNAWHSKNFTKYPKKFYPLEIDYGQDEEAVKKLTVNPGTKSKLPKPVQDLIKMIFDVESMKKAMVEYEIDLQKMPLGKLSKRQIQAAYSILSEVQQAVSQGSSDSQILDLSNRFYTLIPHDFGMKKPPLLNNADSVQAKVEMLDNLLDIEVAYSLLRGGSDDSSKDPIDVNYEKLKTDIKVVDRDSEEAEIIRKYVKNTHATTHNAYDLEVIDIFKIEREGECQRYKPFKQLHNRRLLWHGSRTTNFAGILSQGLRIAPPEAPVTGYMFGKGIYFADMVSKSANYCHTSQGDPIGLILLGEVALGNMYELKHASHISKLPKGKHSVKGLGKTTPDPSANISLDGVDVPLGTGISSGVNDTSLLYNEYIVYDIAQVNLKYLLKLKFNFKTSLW

T1 sequence (P27694 whole entry, chain 1 of 3): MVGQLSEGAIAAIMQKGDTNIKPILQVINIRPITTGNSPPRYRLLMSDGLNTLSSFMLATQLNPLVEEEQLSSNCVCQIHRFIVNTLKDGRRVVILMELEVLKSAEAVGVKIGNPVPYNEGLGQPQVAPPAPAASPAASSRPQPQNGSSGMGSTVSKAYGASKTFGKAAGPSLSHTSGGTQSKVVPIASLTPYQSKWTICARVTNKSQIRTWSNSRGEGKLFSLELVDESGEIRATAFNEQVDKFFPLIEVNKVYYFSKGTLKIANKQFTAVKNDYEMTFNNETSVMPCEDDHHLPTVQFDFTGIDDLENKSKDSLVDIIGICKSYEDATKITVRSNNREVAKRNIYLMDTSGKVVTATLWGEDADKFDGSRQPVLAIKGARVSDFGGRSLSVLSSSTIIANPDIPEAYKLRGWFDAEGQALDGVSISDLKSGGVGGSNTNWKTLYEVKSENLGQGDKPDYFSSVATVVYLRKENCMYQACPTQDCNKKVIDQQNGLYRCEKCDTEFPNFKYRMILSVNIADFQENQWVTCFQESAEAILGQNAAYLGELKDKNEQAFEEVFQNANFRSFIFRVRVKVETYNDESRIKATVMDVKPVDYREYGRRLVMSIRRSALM
T1 sequence (P15927 whole entry, chain 2 of 3): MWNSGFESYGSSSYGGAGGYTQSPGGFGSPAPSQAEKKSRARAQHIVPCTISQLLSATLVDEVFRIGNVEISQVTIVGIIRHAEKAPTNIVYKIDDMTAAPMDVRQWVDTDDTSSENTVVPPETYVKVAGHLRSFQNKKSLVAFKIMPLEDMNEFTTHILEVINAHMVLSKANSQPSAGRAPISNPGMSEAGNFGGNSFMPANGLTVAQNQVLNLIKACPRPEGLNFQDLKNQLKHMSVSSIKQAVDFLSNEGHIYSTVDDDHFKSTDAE
T1 sequence (P35244 whole entry, chain 3 of 3): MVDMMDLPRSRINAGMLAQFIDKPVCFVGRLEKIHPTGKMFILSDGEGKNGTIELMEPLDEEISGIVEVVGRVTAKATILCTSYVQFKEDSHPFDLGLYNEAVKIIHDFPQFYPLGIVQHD
Sequence of YB1 (1-219) (P67809 1-219): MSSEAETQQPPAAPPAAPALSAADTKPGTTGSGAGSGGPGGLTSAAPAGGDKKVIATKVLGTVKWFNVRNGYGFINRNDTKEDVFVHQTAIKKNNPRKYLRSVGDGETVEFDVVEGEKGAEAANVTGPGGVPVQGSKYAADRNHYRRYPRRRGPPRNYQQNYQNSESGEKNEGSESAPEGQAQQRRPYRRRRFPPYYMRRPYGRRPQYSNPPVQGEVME
Sequence of Ku antigen (Ku70/80) (P12956 2-609, chain 1 of 2): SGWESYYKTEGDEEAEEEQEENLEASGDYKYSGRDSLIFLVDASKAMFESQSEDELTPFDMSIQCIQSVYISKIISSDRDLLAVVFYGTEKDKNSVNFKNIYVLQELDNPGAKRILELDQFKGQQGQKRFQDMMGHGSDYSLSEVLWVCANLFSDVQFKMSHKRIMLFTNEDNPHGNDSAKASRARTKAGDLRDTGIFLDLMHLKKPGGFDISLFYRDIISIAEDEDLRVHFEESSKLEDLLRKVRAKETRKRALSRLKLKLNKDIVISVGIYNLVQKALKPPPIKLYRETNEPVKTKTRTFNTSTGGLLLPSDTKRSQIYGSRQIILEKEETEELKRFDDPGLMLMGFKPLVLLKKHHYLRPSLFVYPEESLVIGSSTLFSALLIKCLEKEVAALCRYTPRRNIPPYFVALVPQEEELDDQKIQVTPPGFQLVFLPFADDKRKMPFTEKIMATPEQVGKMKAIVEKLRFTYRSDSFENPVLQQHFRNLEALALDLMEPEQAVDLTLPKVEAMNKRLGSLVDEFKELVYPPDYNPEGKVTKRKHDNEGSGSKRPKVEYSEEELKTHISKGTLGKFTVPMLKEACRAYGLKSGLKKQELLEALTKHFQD
Sequence of Ku antigen (Ku70/80) (P13010 2-732, chain 2 of 2): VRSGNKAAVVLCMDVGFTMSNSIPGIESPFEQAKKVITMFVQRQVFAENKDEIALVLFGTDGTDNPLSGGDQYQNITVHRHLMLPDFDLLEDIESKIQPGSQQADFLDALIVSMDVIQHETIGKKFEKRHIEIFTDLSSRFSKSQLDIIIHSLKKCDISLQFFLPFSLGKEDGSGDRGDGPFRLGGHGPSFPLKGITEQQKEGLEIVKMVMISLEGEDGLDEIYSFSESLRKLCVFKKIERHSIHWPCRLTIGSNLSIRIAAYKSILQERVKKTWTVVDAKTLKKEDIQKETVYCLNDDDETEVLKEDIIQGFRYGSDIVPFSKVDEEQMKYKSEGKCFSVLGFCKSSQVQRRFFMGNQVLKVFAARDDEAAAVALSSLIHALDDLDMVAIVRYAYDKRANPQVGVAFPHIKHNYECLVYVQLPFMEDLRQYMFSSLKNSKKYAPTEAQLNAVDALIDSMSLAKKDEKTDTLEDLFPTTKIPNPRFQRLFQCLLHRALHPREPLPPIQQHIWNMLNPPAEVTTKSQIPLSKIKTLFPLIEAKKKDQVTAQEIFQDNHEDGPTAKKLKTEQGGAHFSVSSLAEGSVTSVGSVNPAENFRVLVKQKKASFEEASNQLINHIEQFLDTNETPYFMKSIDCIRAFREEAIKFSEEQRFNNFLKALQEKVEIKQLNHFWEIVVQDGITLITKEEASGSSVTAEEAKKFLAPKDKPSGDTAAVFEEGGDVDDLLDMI
Sequence of PARP2 (O88554 whole entry): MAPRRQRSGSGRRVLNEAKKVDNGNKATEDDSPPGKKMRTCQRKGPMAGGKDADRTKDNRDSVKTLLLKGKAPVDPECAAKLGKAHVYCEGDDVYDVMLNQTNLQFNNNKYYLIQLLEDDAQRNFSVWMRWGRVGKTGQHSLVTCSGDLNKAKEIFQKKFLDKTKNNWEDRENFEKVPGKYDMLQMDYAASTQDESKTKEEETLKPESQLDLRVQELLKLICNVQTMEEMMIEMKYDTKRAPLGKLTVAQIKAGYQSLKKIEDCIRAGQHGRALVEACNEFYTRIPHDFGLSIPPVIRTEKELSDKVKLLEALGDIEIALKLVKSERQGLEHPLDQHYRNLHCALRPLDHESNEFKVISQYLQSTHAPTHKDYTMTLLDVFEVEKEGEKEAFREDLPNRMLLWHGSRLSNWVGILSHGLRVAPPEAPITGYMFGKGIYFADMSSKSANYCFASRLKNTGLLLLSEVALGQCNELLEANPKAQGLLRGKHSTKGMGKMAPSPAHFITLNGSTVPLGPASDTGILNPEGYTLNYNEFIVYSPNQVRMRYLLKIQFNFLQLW

B1: sgRNA (pLK1) + dsDNA1/2* (mixed)
RNA: GGAUAACUCAAUUUGUAAAAAAGUUUUAGAGCUAGAAAUAGCAAGUUAAAAUAAGGCUAGUCCGUUAUCAACUUGAAAAAGUGGCACCGAGUCGGUGCUUUU
DNA 1: CTGATAACTCAATTTGTAAAAAATGGTACTGAGCA
DNA 2: TGCTCAGTACCATTTTTTACAAATTGAGTTATCAG
apparent K (half saturation) (Cas9): 7.7 ± 0.4 nM

B2: dsDNA1/2* (dsDNA)
DNA 1: CTGATAACTCAATTTGTAAAAAATGGTACTGAGCA
DNA 2: TGCTCAGTACCATTTTTTACAAATTGAGTTATCAG
binding result (Ku antigen (Ku70/80)): binds
apparent K (half saturation) (RPA [1]): 90 ± 20 nM
apparent K (half saturation) (RPA [2]): 125 ± 40 nM
binding result (YB1 (1-219)): binds
apparent K (half saturation) (PARP2): 200 ± 16 nM
apparent K (half saturation) (PARP1): 53 ± 5 nM
